Test results from patent US20240342207, “MODIFIED NUCLEIC ACID COMPOSITIONS AND ASSOCIATED METHODS FOR TREATMENT OF PHENYLKETONURIA” (BOARD OF REGENTS, THE UNIVERSITY OF TEXAS SYSTEM, published 2024).
Numbering of substitutions follows the chain as printed.

Legend:
Assay in all cases: EMSA; also decreased affinity in quantified assay
Conditions in all cases: tags: His-tag, E. coli; stem-loop
[1] = target: T1, PAH N207S (Homo sapiens, UniProt P00439 P00439:1-452, N207S)
T1 sequence: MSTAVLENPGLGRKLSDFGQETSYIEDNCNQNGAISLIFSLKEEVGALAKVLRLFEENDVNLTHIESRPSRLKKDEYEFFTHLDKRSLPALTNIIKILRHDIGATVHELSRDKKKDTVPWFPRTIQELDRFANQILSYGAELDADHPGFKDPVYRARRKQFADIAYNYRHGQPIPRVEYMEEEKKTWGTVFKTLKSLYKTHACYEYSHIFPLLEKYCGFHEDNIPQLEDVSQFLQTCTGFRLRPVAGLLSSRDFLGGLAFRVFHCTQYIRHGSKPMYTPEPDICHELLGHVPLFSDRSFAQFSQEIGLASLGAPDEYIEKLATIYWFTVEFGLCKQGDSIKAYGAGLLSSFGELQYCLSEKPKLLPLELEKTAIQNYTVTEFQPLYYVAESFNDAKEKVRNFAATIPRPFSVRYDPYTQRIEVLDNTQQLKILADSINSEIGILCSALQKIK
Description: (§1) It was reasoned that supplementing lncRNAs might improve the catalytic activities of the PAH mutants, leading to reduced serum Phe concentrations and improved symptoms in patients with PKU. Scramble (Scr) and HULC mimics representing wild-type HULC nt. 181-201 and HULC A191G mutated sequences were designed for the following studies. 17 PAH mutants that were identified from patients with PKU and are known to affect the enzymatic activity of PAH (21, 22) were selected, and bacterially-expressed wild-type and mutant PAH (FIG. 10 and see FIG. S13A in Li et al. 2021) were collected. […] The denatured wild-type PAH proteins were included as a negative control.
(§2) RNA Electrophoretic Mobility Shift Assay (EMSA). The gel mobility shift assay was performed as previously described (42). Briefly, 500 ng recombinant His-tagged wild-type PAH or mutants were incubated with 0.035 μmol labeled probe in a RNA-protein binding buffer [(50 mM Tris-HCl 7.9, 10% glycerol, 100 mM KCl, 5 mM MgCl₂, 10 mM (3-ME, 0.1% NP40] for 30 min at 30° C. For cold RNA competition, 0.035 μmol radiolabeled RNA probes were first mixed with 7 μmol cold RNA competitors and then subjected to the gel shift assay.

[2] = target: T2, PAH R157N (Homo sapiens, UniProt P00439 P00439:1-452, R157N)
T2 sequence: T1 sequence with R157N, S207N
Description: as §1, §2

[3] = target: T3, PAH S349L (Homo sapiens, UniProt P00439 P00439:1-452, S349L)
T3 sequence: T1 sequence with S207N, S349L
Description: as §1, §2

Measured: binding result

CAAAAUGCAUAUGUAUCUUUG (ssRNA) [HULC 181-201 mimic]
no binding: all assays above
